Reference: patent publication EP0952217A2

Target: SCCA1 recombinant protein expressed on transfected HepG2 and CHO cells (human) (UniProt P29508)
Assay: virus-to-cell binding assay: transfected cells incubated 20 min with HBV-positive serum and washed, cell-associated HBV-DNA measured by hybrid capture

Sequence of UniProt P29508 (P29508 whole entry T357A): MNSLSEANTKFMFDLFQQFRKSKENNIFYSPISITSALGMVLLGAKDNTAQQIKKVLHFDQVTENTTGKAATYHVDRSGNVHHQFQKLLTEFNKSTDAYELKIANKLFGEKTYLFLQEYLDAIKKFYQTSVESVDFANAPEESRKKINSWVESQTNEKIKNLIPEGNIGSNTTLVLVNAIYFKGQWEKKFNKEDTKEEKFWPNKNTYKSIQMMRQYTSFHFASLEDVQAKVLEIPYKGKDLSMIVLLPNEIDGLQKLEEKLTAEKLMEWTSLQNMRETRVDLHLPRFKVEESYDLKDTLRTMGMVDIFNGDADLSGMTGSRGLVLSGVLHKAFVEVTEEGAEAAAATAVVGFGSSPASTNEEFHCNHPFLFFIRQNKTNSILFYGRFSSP

## HBV viral particles from HBV-DNA positive serum of patients with acute hepatitis B
  HBV-DNA value, fold over the control cell lines: > 8 .fold
